Target: T1, BSA (UniProt P02769 25-607)
T1 construct: Unconjugated carrier protein used as the control antigen
Test: concentration-dependent ELISA, BSA coated at 20 µg/ml, detected with tetra-His antibody
Description: Specific binding of mutant 12A to the BSA-estradiol-17-hemisuccinate conjugate was assayed by carrying out an ELISA, with increasing concentrations of purified mutant 12A-His-Tag protein being used. Increasing amounts of gamma-II-crystalline wild-type (likewise with His-Tag) were used as control, and binding of both purified proteins to BSA was assayed. The concentration-dependant ELISA was carried out using NUNC-Tm plates. Antigen coating with the BSA-estradiol-17-hemisuccinate conjugate or with BSA was carried out at room temperature overnight. Coating was carried out with in each case 100 µl of antigen at a concentration of 20 µg/ml of PBS pH 7.6. After washing (2×PBS pH 7.6) and blocking the plates (3% Marvel/PBS at 37° C. for 2 h), in each case 1-13 µl of the protein stock solution (concentration 0.63 mg/ml) of purified Mu 12A or gamma-II-crystalline were introduced into a total 100 µl of reaction solution (PBS, 3% Marvel, x µl of protein) and incubated in the wells at 37° C. for 2 h. The secondary antibodies used were the tetra-His antibody from Qiagen in a dilution of 1:3000 and the anti-mouse POD antibody (Sigma) in a dilution of 1:2000. The antibodies were diluted with a 3% strength Marvel/PBS solution and 100 µl were added to the wells and incubated at 37° C. for in each case 1 h. […] No increase was detected using gamma-II-crystalline. […]

T1 sequence (P02769 25-607 limits assumed): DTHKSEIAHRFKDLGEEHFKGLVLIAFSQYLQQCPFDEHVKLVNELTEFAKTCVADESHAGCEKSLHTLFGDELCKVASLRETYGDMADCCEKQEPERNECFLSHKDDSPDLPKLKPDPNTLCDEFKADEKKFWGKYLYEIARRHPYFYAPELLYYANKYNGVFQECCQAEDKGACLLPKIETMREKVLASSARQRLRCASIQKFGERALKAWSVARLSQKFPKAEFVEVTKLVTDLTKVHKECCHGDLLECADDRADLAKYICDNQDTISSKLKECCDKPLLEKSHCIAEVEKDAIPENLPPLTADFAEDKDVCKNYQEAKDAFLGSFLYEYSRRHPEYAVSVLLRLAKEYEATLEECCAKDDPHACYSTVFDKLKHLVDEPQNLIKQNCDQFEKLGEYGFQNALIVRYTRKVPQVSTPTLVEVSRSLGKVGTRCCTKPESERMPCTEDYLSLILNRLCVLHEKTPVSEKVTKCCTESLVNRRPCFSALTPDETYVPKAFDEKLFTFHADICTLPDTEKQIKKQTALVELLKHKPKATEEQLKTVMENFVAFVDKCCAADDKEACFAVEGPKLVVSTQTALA

B1: bovine gamma-II-crystalline wild-type, purified His-Tag protein after expression in pET-20b (other)
chain: MGKITFYEDRGFQGHCYECSSDCPNLQPYFSRCNSIRVDSGCWMLYERPNYQGHQYFLRRGDYPDYQQWMGFNDSIRSCRLIPQHTGTFRMRIYERDDFRGQMSEITDDCPSLQDRFHLTEVHSLNVLEGSWVLYEMPSYRGRQYLLRPGEYRRYLDWGAMNAKVGSLRRVMDFYSDPNSSSVDKLAAALEHHHHHH
notes: Starting protein used as the control, likewise with His-Tag; also called WT; gamma-B-crystalline
B1: no binding.

From US7601803 (SCIL PROTEINS, dated 2009)
